# According to paper PMC11603127 (Computational and Structural Biotechnology Journal, 2024):
# Where a chain is given by its changes, count along the chain named.
# T1: Recombinant NAA10 (wild type) (human, UniProt P41227 1-235, labeled with Monolith NT Protein Labeling Kit RED)
# T1 sequence: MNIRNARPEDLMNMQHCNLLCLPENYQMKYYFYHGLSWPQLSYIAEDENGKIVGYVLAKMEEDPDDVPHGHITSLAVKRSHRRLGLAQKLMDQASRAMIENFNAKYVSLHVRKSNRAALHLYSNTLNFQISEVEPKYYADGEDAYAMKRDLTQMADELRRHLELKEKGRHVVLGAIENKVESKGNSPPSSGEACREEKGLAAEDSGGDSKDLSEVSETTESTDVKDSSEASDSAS
# T2: Recombinant NAA10^F128L (human, UniProt P41227 1-235, F128L, labeled with Monolith NT Protein Labeling Kit RED)
# T2 sequence: T1 sequence with F128L
# B1: EEEI24 oligopeptide (peptide)
# peptide: EEEIAALRWGRPVGRRRRPVRVYP
# Tests used:
# [1] = target: T1, Recombinant NAA10 (wild type); assay: MST
# Recombinant NAA10^F128L = target: T2, Recombinant NAA10^F128L; assay: MST
binder,measurement,setting,value
B1,binding result,[1],binds
same,binding result,Recombinant NAA10^F128L,binds
